Experimental findings from US20070128190A1 are described below.

Test [1] addresses GST-rat α2 I domain fusion protein (rat). Put plainly: Eu-TMC-2206 on immobilized GST-α2 I domain at 37 °C, Scatchard.
For test [2] the target is unchanged. Kind of test: SPR (Biacore 2000), antibody captured, GST-α2 I domain in solution. On the technique in general: In SPR one partner is held on a chip, and binding of the other changes the refractive index at the surface.
The target of test [3] is human platelet α2β1 integrin (immobilized on microtiter plates) (human) (UniProt P17301). Kind of test: competition with Eu-TMC-2206 on human platelet α2β1-coated plate.
Chain of human platelet α2β1 integrin (immobilized on microtiter plates) (human) (P17301 30-1181 E534K limits assumed, chain 1 of 2): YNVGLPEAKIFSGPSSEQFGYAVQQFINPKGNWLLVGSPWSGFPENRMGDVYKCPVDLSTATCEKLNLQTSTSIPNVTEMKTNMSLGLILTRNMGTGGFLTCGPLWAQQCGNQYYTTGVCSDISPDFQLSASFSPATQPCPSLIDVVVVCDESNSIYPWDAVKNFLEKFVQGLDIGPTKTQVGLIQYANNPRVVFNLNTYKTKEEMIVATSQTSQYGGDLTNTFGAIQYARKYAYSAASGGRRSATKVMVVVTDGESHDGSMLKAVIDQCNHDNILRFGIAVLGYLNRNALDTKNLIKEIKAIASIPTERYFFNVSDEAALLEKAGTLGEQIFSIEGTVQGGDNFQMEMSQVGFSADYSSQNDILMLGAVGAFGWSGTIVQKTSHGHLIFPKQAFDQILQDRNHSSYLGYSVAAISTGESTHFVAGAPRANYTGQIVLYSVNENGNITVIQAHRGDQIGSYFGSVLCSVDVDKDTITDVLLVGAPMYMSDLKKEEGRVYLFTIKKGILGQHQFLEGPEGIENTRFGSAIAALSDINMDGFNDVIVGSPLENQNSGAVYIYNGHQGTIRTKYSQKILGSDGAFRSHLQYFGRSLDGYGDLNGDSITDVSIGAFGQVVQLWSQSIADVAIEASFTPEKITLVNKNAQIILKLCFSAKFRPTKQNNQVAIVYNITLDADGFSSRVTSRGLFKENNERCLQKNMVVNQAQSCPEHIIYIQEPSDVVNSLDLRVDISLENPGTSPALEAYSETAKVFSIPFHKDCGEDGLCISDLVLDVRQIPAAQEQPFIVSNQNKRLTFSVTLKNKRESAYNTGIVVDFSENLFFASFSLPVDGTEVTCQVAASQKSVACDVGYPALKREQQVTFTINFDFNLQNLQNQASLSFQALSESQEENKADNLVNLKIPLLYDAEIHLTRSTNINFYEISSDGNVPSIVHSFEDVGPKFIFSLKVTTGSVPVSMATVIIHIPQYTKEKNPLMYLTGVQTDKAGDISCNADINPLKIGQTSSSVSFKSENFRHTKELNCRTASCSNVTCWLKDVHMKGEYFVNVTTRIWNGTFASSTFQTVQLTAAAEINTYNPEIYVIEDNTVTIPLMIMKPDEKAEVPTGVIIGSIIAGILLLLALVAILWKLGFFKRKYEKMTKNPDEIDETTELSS
Chain of human platelet α2β1 integrin (immobilized on microtiter plates) (human) (chain, as listed by the source limits assumed, chain 2 of 2): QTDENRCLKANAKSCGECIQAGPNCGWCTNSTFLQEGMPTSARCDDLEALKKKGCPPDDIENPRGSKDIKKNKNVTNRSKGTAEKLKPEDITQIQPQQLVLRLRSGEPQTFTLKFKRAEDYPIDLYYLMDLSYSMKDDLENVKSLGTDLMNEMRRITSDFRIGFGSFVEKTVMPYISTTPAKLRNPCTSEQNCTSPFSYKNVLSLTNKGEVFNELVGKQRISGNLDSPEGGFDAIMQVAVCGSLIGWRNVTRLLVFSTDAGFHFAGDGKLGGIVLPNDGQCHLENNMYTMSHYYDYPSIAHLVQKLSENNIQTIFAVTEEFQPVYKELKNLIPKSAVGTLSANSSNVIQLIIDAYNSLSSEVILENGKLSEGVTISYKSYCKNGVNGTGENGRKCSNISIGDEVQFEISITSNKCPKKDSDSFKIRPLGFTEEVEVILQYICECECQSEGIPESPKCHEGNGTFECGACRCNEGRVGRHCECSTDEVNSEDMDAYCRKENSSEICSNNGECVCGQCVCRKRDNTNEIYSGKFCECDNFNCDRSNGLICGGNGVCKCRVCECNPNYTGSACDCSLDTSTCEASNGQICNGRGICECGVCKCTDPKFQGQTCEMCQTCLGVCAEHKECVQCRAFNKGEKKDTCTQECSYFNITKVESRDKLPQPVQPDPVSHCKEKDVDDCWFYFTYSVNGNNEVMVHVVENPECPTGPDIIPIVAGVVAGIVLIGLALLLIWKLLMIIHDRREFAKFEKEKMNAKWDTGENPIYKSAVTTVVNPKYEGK

B1: TMC-2206 (antibody, mouse IgG1, V domains shown)
VH: QVQLKESGPGLVAPSQSLSITCTVSGFSLTNYGIHWVRQPPGKGLEWLGVIWARGFTNYNSALMSRLIITKDNSQSQVFLKMNSLQPDDSATYFCARANDGVYYAMDYWGQGTSVTVSS
VL: QFVLTQSPAFLSASPGEKVTMTCSANSSVNYIHWYQQKSGTSPKKWIYDTSKLASGVPVRFSGSGSGTSYSLTISSMETEDAATYYCQQWTTNPLTFGAGTRVELK
Regarding B1, in test [1], the Kd (usually the concentration at which binding is half-saturated) came out at 1.3 nM and the fold decrease compared to human α2 I domain was determined as 6 fold. Besides, in test [2], the Kd was 2 nM; the koff (as a rule, the first-order rate constant of dissociation) was found to be 0.00082 s⁻¹; the kon (usually a measure of how fast the partners come together) stood at 420000 M⁻¹ s⁻¹.

B2: TMC-2206 VH D100A variant antibody (antibody, part only; not given: Light chain, constant regions, V domains shown, part only)
VH: QVQLKESGPGLVAPSQSLSITCTVSGFSLTNYGIHWVRQPPGKGLEWLGVIWARGFTNYNSALMSRLIITKDNSQSQVFLKMNSLQPDDSATYFCARANAGVYYAMDYWGQGTSVTVSS
Consider B2, for which the fold shift in potency relative to the mouse-human chimeric TMC-2206 antibody in test [3] was > 1600 fold.
